Experimental data from patent publication US20210292393A1 (published 2021).

B1: antibody 323 (antibody, V domains shown)
VH: QVQLVQSGAEVKKPGASVKVSCKVSGYTLTELSMHWVRQAPGKGLEWMGGFDPEDGETIYAQKFQGRVTMTEDTSTDTAYMELSSLRSEDTAVYYCATSTIFAPGGWFDPWGQGTLVTVSS
VL: QSALTQPASVSGSPGQSITISCTGTSSDVGSYNLVSWYQQHPGKAPKLMIYEVSKRPSGVSNRFSGSKSGNTASLTISGLQAEDEADYYCCSYAGSTHYVFGTGTKVTVL
B2: antibody 331 (antibody, V domains shown)
V domain 1: QITLKESGPTLVKPTETLTLTCSFSGFSLTKTGEAAGWIRQAPGRALEWVTVIFWDDDKRYSPSLQNRISVTKDTSKNQVVLRMTNVARFDTGTYFCWAMGGPGKEYFGQGTLVAVSS
V domain 2: QSVLTQPPSVSGAPGQRVTISCTGTSSSIGPYSDVHWYQHVSGKAPRLLIFGNSNRPSGVPDRFSGSKSGTSASLVIAGLQAEDEADYYCQSYDSSLGEIYVFGTGTTVTVL
B3: antibody 339 (antibody, V domains shown)
V domain 1: QITLKESGPTLVKPTETLTLTCSFSGFSLTRTGEAAGWIRQAPGRALEWVTVIFWDDDKRYSPSLQSRLTVTKDTSKNQVVLTMTNVARFDTATYFCWAMGGPGKEYFGQGTQVAVSS
V domain 2: QSVLTQPPSVSGAPGQRVTISCTGTSSSIGPYSDVHWYQHVSGKAPRLLIFGNSNRPSGVPDRFSGSKSGTSASLVIAGLQAEDEADYYCQSYDSSLGEIYVFGTGTTVTVL
B4: antibody 348 (antibody, V domains shown)
VH: QVQLVQSGSELKKPGASVKVSCKASGYTFTSYAMNWVRQAPGQGLEWMGWINTNTGNPTYAQGFTGRFVFSLDTSVSTAYLQISSLKAEDTAVYYCARDHELPNTSSWFGHFEYWGQGTLVTVSS
VL: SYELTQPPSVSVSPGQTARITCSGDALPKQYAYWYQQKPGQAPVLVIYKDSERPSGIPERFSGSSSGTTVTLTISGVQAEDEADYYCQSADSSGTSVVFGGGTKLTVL
B5: antibody 340 (antibody, V domains shown)
VH: QVQLVQSGAEVKKPGASVKVSCKASGYTFTSYDINWVRQATGQGLEWMGWMNPNSGNTGYAQKFQGRVTMTRNTSISTAYMELSSLRSEDTAVYYCARGRYCTGGVCWGDWYFDLWGRGTLVTVSS
VL: QSVLTQPPSVSGAPGQRVTISCTGSSSNIGAGYDVHWYQQLPGTAPKFLIYGNSNRPSGVPDRFSGSKSGTSASLAITGLQAEDEADYYCQSYDSSLSGPVFGGGTKLTVL
B6: antibody 366 (antibody, V domains shown)
VH: QVQLVESGGGVVQPGRSLRLSCAASGFTFSSYAMHWVRQAPGKGLEWVAVISYDGSNKYYADSVKGRFTISRDNSKNTLYLQMNSLRAEDTAVYYCARGLVGYNWFDPWGQGTLVTVSS
VL: DIQMTQSPSSVSASVGDRVTITCRASQGISSWLAWYQQKPGKAPKLLIYAASSLQSGVPSRFSGSGSGTDFTLTISSLQPEDFATYYCQQANSFTFGPGTKVDIK
B7: antibody 345 (antibody, V domains shown)
VH: QVQLQESGPGLVKPSQTLSLTCTVSGGSISSGDYYWSWIRQPPGKGLEWIGYIYYSGSTYYNPSLKSRVTISVDTSKNQFSLKLSSVTAADTAVYYCARVGMVDNWNFEGNWFDPWGQGTLVTVSS
VL: QSALTQPRSVSGSPGQSVTISCTGTSSDVGGYNYVSWYQQHPGKAPKLMIYDVSKRPSGVPDRFSGSKSGNTASLTISGLQAEDEADYYCCSYAGSVVFGGGTKLTVL
B8: antibody 329 (antibody, V domains shown)
VH: EVQLVESGGGLVQPGGSLRLSCAASGFTFSSYWMHWVRQAPGKGLVWVSRINSDGSSTSYADSVKGRFTISRDNAKNTLYLQMNSLRAEDTAVYYCAREGIVATITLDYWGQGTLVTVSS
VL: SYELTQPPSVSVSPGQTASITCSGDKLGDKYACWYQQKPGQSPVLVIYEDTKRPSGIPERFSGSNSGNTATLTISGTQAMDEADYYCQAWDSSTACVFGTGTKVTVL
B9: antibody 317 (antibody, V domains shown)
VH: QVQLVQSGAEVKKPGASVKVSCKVSGYTLTELSMHWVRQAPGKGLEWMGGFDPEDGETIYAQKFQGRVTMTEDTSTDTAYMELSSLRSEDTAVYYCASSPAAAGTSQYYYYYGMDVWGQGTTVTVSS
VL: not shown
B10: antibody 324 (antibody, V domains shown)
VH: QVQLQESGPGLVKPSGTLSLTCAVSGGSISSSNWWSWVRQPPGKGLEWIGEIYHSGSTNYNPSLKSRVTISVDNSKNQFSLKLSSVTAADTAVYYCARESVAAAGISYYYYGMDVWGQGTTVTVSS
VL: EIVLTQSPGTLSLSPGERATLSCRASQSVSGRYLAWYQQKPGQAPRLLIYGASSRATGIPDRFSGSGSGTDFTLTISRLEPEDFAVYYCQHYGSSPGTFGQGTRLEIK
B11: antibody 326 (antibody, V domains shown)
VH: QITLKESGPTLVKPTQTLTLTCTFSGFSLNTSGVGVGWIRQPPGKALEWLSLIFWNDDKRYSPSLRSRLTITKDTSKNQVVLTMTNMDPVDTATYFCAHRNSGWSLKFDSWGQGSLVTVSA
VL: DIQMTQSPSSVSASVGDRVTITCRARQGISSWLVWYQQKPGKAPKLLIFGASSLQSGVPSRFNASGTGTEFTLTISSLQPEDFATYYCQQADSFPITFGQGTRLEIK
B12: antibody 344 (antibody, V domains shown)
VH: QVQLVESGGGVVQPGRSLRLSCAASGFTFSSYAMHWVRQAPGKGLEWMAVISYDGSNKYYADSVKGRFTISRDNSKNTLYLQMNSLRAEDTAVYFCAKGYSGSYYEPFDYWGQGTLVTVSS
VL: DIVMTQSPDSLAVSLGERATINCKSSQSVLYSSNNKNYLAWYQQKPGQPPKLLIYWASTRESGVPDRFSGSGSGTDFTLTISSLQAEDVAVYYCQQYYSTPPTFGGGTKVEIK
B13: antibody 316 (antibody, V domains shown)
VH: QVHLVESGGGVVQPGRSLRLSCAASGFTLTAYAMHWVRQAPGKRLEWVALISYDGSVKKYADSVKGRITVSGDTSTNTLHLQMNSLRADDTAVYYCVRGGVSGPNSFDLWGQGTMVTVSS
VL: DVVMTQSPLSLPVTLGQPASMSCRSSQSLEYSDGNTYVNWFHQRPGQSPRRLIYKVSYRDSGVPDRFSGSGSGTDFTLQISRVEAEDVGIYYCMQGTHWPVTFGQGTKVEIK
B14: antibody 327 (antibody, V domains shown)
VH: QVQLVESGGGVVQPGRSLRLSCAASGFNLSNYAMHWVRQASGKGLEWVSLISYDGSIKYYTDSVKGRFTVSGDNSKNTLFLQMNSLRPDDSALYYCVRGGVSGPNSFDMWGQGTTVTVSS
VL: DVVMTQSPLSLPVTLGQPASISCRSSQSLVYSDGNTYVNWFQQRPGQSPRRLIYQVSIRASGVPDRFSGSGSGTDFALKISRVEAEDVGIYYCMQGTHWPVTFGQGTKVEIK
B15: antibody 365 (antibody, V domains shown)
VH: QVQLVESGGGVVQPGRSLRLSCAASGFNLSSYAMHWVRQASGKGLEWVSLISYDGSIKYYTDSVKGRFTVSGDNSKNTLFLQMNSLRPDDSALYYCVRGGVSGPNSFDMWGQGTTVTVSS
VL: DVVMTQSPLSLPVTLGQPASISCRSSQSLVYSDGNTYVNWFQQRPGQSPRRLIYKVSIRASGVPDRFSGSGSGTDFALKISRVEAEDVGVYYCMQGTHWPVTFGQGTKVEIK
B16: antibody 320 (antibody, V domains shown)
VH: QVQLVQSGAEVKKPGASVKVSCKASGYTFTSYGISWVRQAPGQGLEWMGWISAYNGNTNYAQKLQGRVTMTTDTSTRTAYMELRSLRSDDTAVYYCARVGCYYDSSGYSCAENFQHWGQGTLVTVSS
VL: QSVLTQPPSVSGAPGQRVTISCTGSSSNIGAGYDVHWYQQLPGTAPKLLIYGNSNRPSGVPDRFSGSKSGTSASLAITGLQAEDEADYYCQSYDSSLSALFGGGTKLTVL
B17: antibody 363 (antibody, V domains shown)
VH: EVQLLESGGGLVQPGGSLRLSCAASGFTFSTYAMSWVRQAPGKGLEWVSAISGSGGSTYYADSVKGRFTISRDNSKNTLYLQMNSLRAEDTAVYYCASGYSPDYWGQGTLVTVSS
VL: not shown
B18: antibody 514 (antibody, V domains shown)
VH: EVQLVQSGAEVKKPGATVKISCKVSGYTFTDYYMHWVQQAPGKGLEWMGLVDPEDGETIYAEKFQGRVTITADTSTDTAYMELSSLRSEDTAVYYCATDCKYDILTGHYSAGYYYYGMDVWGQGTTVTVSS
VL: DIQMTQSPSSLSASVGDRVTITCRASQGISNYLAWFQQKPGKAPKSLIYAASSLQSGVPSKFSGSGSGTDFTLTISSLQPEDFATYYCQQYNSYPFTFGGGTKVEIK
B19: antibody 522 (antibody, V domains shown)
VH: EVQLVESGGGLVQPGGSLRLSCAASGFNFSSYSMNWVRQAPGKGLEWVSYISSSSSTIYYADSVKGRFTISRDNAKNSLYLQMNSLRDEDTAVYYCARGPEWDIVVVQAENWFDPWGQGTLVTVSS
VL: SYELTQPPSVSVSPGQTARITCSGDALPKQYVYWYQQKPGQAPVLVIYKDSERPSGIPERFSGSSSGTTVTLTISGVQAEDEADYYCQSADSSGTYRGVFGGGTKLTVL
B20: antibody 516 (antibody, V domains shown)
VH: QVELQQWGAGLLKPSETLSLTCAVYGGSFSGYYWSWIRQPPGKGLEWIGEINHSGSTNYNPSLKSRVTISIDTSKNQFSLKLSSVTAADTAVYYCARGTTVTTFFAPHWYFDLWGRGTLVTVSS
VL: QSALTQPASVSGSPGQSITISCTGTSSDVGGYNYVSWYQQHPGKAPKLMIYDVSNRPSGVSNRFSGSKSGNTASLTISGLQAEDEADYYCSSYTSSSTPYVFGTGTKVTVL
B21: antibody 517 (antibody, V domains shown)
VH: QVQLVESGGGVVQPGRSLRLSCAASGFNLSNYAMHWVRQASGKGLEWVSLISYDGSIKYYTDSVKGRFTVSGDNSKNTLFLQMNSLRADDSALYYCVRGGVSGPNSFDMWGQGTTVTVSS
VL: DVVMTQSPLSLPVTLGQPASISCRSSQSLVYSDGNTYVNWFQQRPGQSPRRLIYQVSIRASGVPDRFSGSGSGTDFALKISRVEAEDVGVYYCMQGTHWPVTFGQGTKVEIK
B22: antibody 523 (antibody, V domains shown)
VH: EVQLVESGGVSVQPGGSLRLSCAASGFSFNTYDMHWVRQGTGKGLEWVSGIGTAGDTYYSDSVKGRCTISRDNAKNSLHLLVKSVRAADTAVYYCARGVGGIIDYWGQGTLVTVSS
VL: NFVLSQPHSVSESPGKTVTISCTGNSGSIATKYVQWFQQRPGSAPTTVIYEDNQRPSGVPDRFSGSSDSSSNSASLTISGLKTEDEAHYYCQSYHNRRWVFGGGTKLTVL

target: SARS-CoV-2 full length spike protein, V483A mutant, expressed on the surface of CHO cells (SARS-CoV-2, UniProt P0DTC2 14-1273)

First: B1
Second: B2
The “median fluorescence intensity, fold over isotype control” value (“median fluorescence intensity, fold” for short) of the first is higher: 19 fold over isotype for the first, 18.1 fold over isotype for the second.

Going from B3 to B4, the “median fluorescence intensity, fold” value falls from 18.2 fold over isotype to 14.2 fold over isotype.

First: B5
Second: B6
The “median fluorescence intensity, fold” value of the first is higher: 26.3 fold over isotype for the first, 9.74 fold over isotype for the second.

Going from B7 to B8, the “median fluorescence intensity, fold” value rises from 9.41 fold over isotype to 10.6 fold over isotype.

First: B9
Second: B10
The “median fluorescence intensity, fold” value of the first is lower: 10.3 fold over isotype for the first, 24.9 fold over isotype for the second.

Compared with B11, B12 is lower in “median fluorescence intensity, fold” value: 10.2 fold over isotype for the first, 8.15 fold over isotype for the second.

B13 and B14 are the same in “median fluorescence intensity, fold” value: 10.4 fold over isotype for the first, 10.4 fold over isotype for the second.

Compared with B15, B16 is higher in “median fluorescence intensity, fold” value: 11.2 fold over isotype for the first, 19.7 fold over isotype for the second.

In the case of B17, the “median fluorescence intensity, fold” value is reported as 15.1 fold over isotype.

target: SARS-CoV-2 full length spike protein, V483A mutant (SARS-CoV-2, UniProt P0DTC2 14-1273)

First: B18
Second: B19
The “median fold over isotype” value of the first is lower: 1.39 fold over isotype for the first, 6.75 fold over isotype for the second.

First: B20
Second: B21
The “median fold over isotype” value of the first is lower: 2.61 fold over isotype for the first, 11.5 fold over isotype for the second.

For B22, the “median fold over isotype” value was 3.76 fold over isotype.
